The target in this test is Ribosomal protein eL5/uL18 (H. sapiens rpL5) (H. sapiens, UniProt P46777 1-297). In words: NMR titration; 15N-1H HSQC at 25 °C, 35 uM 15N WT N29+P1 or 80 uM KRK→AAA N29+P1 with unlabelled rpL5 at a 1:1 ratio, phosphate buffer pH 6.4 with 5% v/v glycerol; chemical shift perturbations and peak disappearance. Particulars: both partners purified.

Where no end group is shown, it is not given here.

B1: DCC C-tail N29+P1 protein (residues 1121-1167) (domain or fragment)
chain: CTRRSSAQQRKKRATHSAGKRKGSQKDLRPPDLWIHHEEMEMKNIEK
modifications: also: Cy5 label via maleimide (MST only), 15N-labelled (NMR only)
notes: Residues 1121-1122 were included to give a terminal cysteine for labelling; also called WT N29+P1; DCC N29-P1; source: E. coli LOBSTR-BL21(DE3), purified (Ni-NTA, Superdex 75)
As for B1, the binding result is “binds”.
